Reference: PMC6635489

Experiments:
Settings in all cases: glycan lost; control: wild type GluK3
[1] = whole-cell dose-response, 30 µM-30 mM glutamate
[2] = whole-cell patch clamp, 30 mM glutamate, HEK293
[3] = surface biotinylation, anti-GluR6/7 blot, HEK293
[4] = two-pulse 30 mM glutamate protocol, whole-cell patch clamp

B1: GluK3: T249A/T397A (protein)
parent chain: MTAPWRRLRSLVWEYWAGFLVCAFWIPDSRGMPHVIRIGGIFEYADGPNAQVMNAEEHAFRFSANIINRNRTLLPNTTLTYDIQRIHFHDSFEATKKACDQLALGVVAIFGPSQGSCTNAVQSICNALEVPHIQLRWKHHPLDNKDTFYVNLYPDYASLSHAILDLVQSLKWRSATVVYDDSTGLIRLQELIMAPSRYNIRLKIRQLPIDSDDSRPLLKEMKRGREFRIIFDCSHTMAAQILKQAMAMGMMTEYYHFIFTTLDLYALDLEPYRYSGVNLTGFRILNVDNAHVSAIVEKWSMERLQAAPRAESGLLDGVMMTDAALLYDAVHIVSVCYQRASQMTVNSLQCHRHKPWRFGGRFMNFIKEAQWEGLTGRIVFNKTSGLRTDFDLDIISLKEDGLEKVGVWSPADGLNITEVAKGRGPNVTDSLTNRSLIVTTLLEEPFVMFRKSDRTLYGNDRFEGYCIDLLKELAHILGFSYEIRLVEDGKYGAQDDKGQWNGMVKELIDHKADLAVAPLTITHVREKAIDFSKPFMTLGVSILYRKPNGTNPSVFSFLNPLSPDIWMYVLLAYLGVSCVLFVIARFSPYEWYDAHPCNPGSEVVENNFTLLNSFWFGMGSLMQQGSELMPKALSTRIIGGIWWFFTLIIISSYTANLAAFLTVERMESPIDSADDLAKQTKIEYGAVKDGATMTFFKKSKISTFEKMWAFMSSKPSALVKNNEEGIQRTLTADYALLMESTTIEYITQRNCNLTQIGGLIDSKGYGIGTPMGSPYRDKITIAILQLQEEDKLHIMKEKWWRGSGCPEEENKEASALGIQKIGGIFIVLAAGLVLSVLVAVGEFIYKLRKTAEREQRSFCSTVADEIRFSLTCQRRLKHKPQPPMMVKTDAVINMHTFNDRRLPGKDSMSCSTSLAPVFP
other: glutamate EC50 of channel current, EC50 [1]: decreases, 6.5 vs 9.5 | other: desensitization time constant, other: mean weighted tau_des [2]: no change, 4.3 ± 0.2 vs 3.8 ± 0.5 | localisation_or_trafficking [3]: no change

B2: GluK3: S404A (protein)
parent chain: B1 parent chain
other: glutamate EC50 of channel current, EC50 [1]: no change, 10.3 vs 9.5 | other: desensitization time constant, other: mean weighted tau_des [2]: no change, 4.5 ± 0.3 vs 3.8 ± 0.5 | other: time constant of recovery from desensitization, other: tau_rec [4]: decreases, 0.5 vs 0.9 | localisation_or_trafficking [3]: no change

B3: GluK3: T397A (protein)
parent chain: B1 parent chain
other: glutamate EC50 of channel current, EC50 [1]: decreases, 3.7 vs 9.5 | other: desensitization time constant, other: mean weighted tau_des [2]: no change, 3.2 ± 0.2 vs 3.8 ± 0.5 | other: time constant of recovery from desensitization, other: tau_rec [4]: no change, 0.8 vs 0.9 | localisation_or_trafficking [3]: no change

B4: GluK3: T397A/S404A (protein)
parent chain: B1 parent chain
other: glutamate EC50 of channel current, EC50 [1]: decreases, 5.7 vs 9.5 | other: desensitization time constant, other: mean weighted tau_des [2]: no change, 4.0 ± 0.4 vs 3.8 ± 0.5 | other: time constant of recovery from desensitization, other: tau_rec [4]: decreases, 0.5 vs 0.9 | localisation_or_trafficking [3]: no change

B5: GluK3: T249A/S404A (protein)
parent chain: B1 parent chain
other: glutamate EC50 of channel current, EC50 [1]: decreases, 5.3 vs 9.5 | other: desensitization time constant, other: mean weighted tau_des [2]: no change, 4.1 ± 0.2 vs 3.8 ± 0.5 | other: time constant of recovery from desensitization, other: tau_rec [4]: decreases, 0.3 vs 0.9 | localisation_or_trafficking [3]: no change

B6: GluK3: T249A (protein)
parent chain: B1 parent chain
other: glutamate EC50 of channel current, EC50 [1]: decreases, 7.2 vs 9.5 | other: desensitization time constant, other: mean weighted tau_des [2]: no change, 3.7 ± 0.4 vs 3.8 ± 0.5 | localisation_or_trafficking [3]: no change

B7: GluK3: N721A glycan knockout (Methods: T723A) (protein)
parent chain: B1 parent chain
localisation_or_trafficking [3]: abolishes
